Assay results: patent US7943358B2, “Polymerase enhancing factor (PEF) extracts, PEF protein complexes, isolated PEF protein, and methods for purifying and identifying” (Agilent Technologies, Inc., priority 1997, dated 2011)

What was measured:
Assay type in all cases: biochemical
[1] = Reverse phase HPLC analysis of dCTP conversion
Method: The similarity of P45 to dCTP deaminases prompted us to test whether dCTP or other nucleotide triphosphates were substrates of PEF/P45. PEF was incubated with dCTP or dUTP and the reaction products were separated by reverse phase HPLC. Reaction mixtures (50 μl) containing 1× cloned Pfu polymerase buffer, 10 mM dCTP or dUTP, and 700 ng PEF (or 5 μl of cloned p45 (˜100 ng) or nothing (neg. control)) were incubated at 72° C. for 1 hour. The samples were injected on a […] Waters Delta-pak C-18 column (300 angstrom/15 μm), equilibrated in 50 mM triethylammonium acetate, pH (7.0) (A). Products were eluted with acetonitrile (B) at 2 ml/min. using the following gradient: 0% B for 5 minutes, 0-10% B over 20 minutes. Absorbence of the eluate was monitored with a photodiode array detector, and peak areas were integrated at 260 nm.

[2] = test system: gapped-duplex calf thymus DNA; assay: DNA polymerase activity, gapped-duplex calf thymus DNA assay
Method: Initially and as a control to confirm the activity of the DNA polymerase used, gapped-duplex calf thymus DNA (Pharmacia) assays were performed. The polymerase cocktail contained 50 mM Tris-HCl, pH 8.0, 5 mM MgCl2, 1 mM DTT, 50 μg/m BSA, 4% glycerol, 200 μM each dNTP, [^3H]TTP (0.5 mCi·μmole final concentration), and 250 μg/ml of activated calf thymus DNA (Pharmacia). Samples containing Pfu DNA polymerase or P. furiosus PEF were serially diluted in Pfu DNA polymerase storage buffer (50 mM Tris-HCl, pH 8.2, 0.1% NP-40, 0.1% Tween-20, 0.1 mM EDTA, 1 mM DTT, 50% glycerol) and then 1 μl of each dilution was added to 10 μl aliquots of polymerase cocktail. Polymerization reactions were conducted in triplicate for 30 minutes at 72° C. The extension reactions were quenched on ice, and then 5 μl aliquots were spotted immediately onto DE81 filters (Whatman). Unincorporated [^3H]TTP was removed by 6 washes with 2×SCC (0.3M NaCl, 30 mM sodium citrate, pH 7.0), followed by one wash with 100% ethanol. Incorporated radioactivity was measured by scintillation counting. The assay was calibrated by counting a known amount of [^3H]TTP on DE-81 filters, omitting the wash steps. One unit of polymerase activity is defined as the amount of enzyme which catalyzes the incorporation of 10 nmoles of total dNTP into polymeric form (binds to DE-81 paper) in 30 minutes at 72° C. […]

Taq DNA polymerase = Taq DNA polymerase (Thermus aquaticus, UniProt P19821); assay: PCR with Taq DNA polymerase
Method: FIGS. 33, 34, 35, and 36. Enhancing activity of P. furiosus PEF in PCRs conducted with Pwo (FIG. 33); JDF-3 (FIGS. 34 and 35), ES4 and Vent (FIG. 35). and Deep Vent (FIG. 36) DNA polymerases. In FIG. 33, 25 μl PCRs were conducted using the 6.2 kb test system (example 1) with 25 U/ml Pwo DNA polymerase and 1× cloned Pfu PCR buffer. 1 μl of S200-purified P. furiosus PEF (prep 1; 225 ng/μl) was added undiluted (lane 1) or diluted 1:10 (lane 2), 1:1000 (lane 3), 1:10,000 (lane 4). 1 μl of dilution buffer was added as a negative control (lane 5). In FIG. 34, a 10 kb lambda DNA-target was amplified from lambda DNA (lanes 1-4; 5-7; 11-13) or mouse genomic DNA, containing 40 copies (lanes 8-10) or 1 copy (lanes 14-16) of a lambda DNA transgene. 100 μl PCRs were conducted with 250 ng of lambda DNA (Sigma) or mouse genomic DNA and 250 ng of primers (F51-20 5′[…] (SEQ ID NO: 22); R10163-20 5′CCA-TCT-CAC-GCG-CCA-GTT-TC) (SEQ ID NO: 23). PCRs were conducted in Taq PCR buffer using 5 U Taq DNA polymerase (lanes 1-4) or 1 U JDF3 DNA polymerase (lanes 5-16). 1 μl of the following was added to PCRs: S200-purified PEF (prep. 3; 550 ng/μl PEF) diluted 1:500 (lanes 2, 12, 15), 1:100 (lanes 6, 9), 1:50 (lane 3), 1:10 (lanes 7, 10, 13, 16), or 1:5 (lane 4). 1 μl of dilution buffer was added as a negative control (lanes 1, 5, 8, 11, 14). […]

Taq DNA polymerase, sequence (P19821 whole entry): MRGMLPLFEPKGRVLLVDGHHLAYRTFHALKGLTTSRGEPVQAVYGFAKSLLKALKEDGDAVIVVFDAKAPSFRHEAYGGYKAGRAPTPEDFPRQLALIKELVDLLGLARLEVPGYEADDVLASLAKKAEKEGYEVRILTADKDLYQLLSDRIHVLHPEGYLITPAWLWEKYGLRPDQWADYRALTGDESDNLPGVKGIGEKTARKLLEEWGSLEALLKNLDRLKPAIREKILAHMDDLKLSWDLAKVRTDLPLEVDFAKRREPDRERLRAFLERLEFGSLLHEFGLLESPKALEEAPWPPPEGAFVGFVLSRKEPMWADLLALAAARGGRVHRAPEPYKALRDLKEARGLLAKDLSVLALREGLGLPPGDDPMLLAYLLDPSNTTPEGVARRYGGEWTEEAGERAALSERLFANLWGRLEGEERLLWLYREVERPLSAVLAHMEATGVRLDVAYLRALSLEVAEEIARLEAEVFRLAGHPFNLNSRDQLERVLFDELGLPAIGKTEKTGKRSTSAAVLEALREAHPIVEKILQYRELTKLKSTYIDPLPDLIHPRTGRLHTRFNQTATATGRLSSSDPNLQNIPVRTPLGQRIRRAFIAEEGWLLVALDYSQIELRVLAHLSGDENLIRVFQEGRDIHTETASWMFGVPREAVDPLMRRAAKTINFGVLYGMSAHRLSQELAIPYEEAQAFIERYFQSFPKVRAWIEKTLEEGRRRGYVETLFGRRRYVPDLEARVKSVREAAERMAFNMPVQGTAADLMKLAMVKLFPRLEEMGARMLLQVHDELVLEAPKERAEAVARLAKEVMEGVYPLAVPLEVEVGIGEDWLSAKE

B1: PEF: polymerase enhancing factor complex purified from Pyrococcus furiosus; predominant components P50 and P45 (protein)
chain 1: MLHHVKLIYATKSRKLVGKKIVXXXPGSIAALDVKACEGLIRHGAEVHAVMSEAATKIIHPYAWNLPTGNPVITEITGFIEHVELAGEHENKADLILVCPATANTISKIACGIDDTPVTTVVTTAFPHIPIMIAPAMHETMYRHPIVRENIERLKKLGVEFIGPRIEEGRAKVASIDEIVYRVIKKLHKKTLEGKRVLVTAGATREYIDPIRFITNASSGKMGVALAEEADFRGAVTLIRTKGSVKAFRIRKIKLKVETVEEMLSAIENELRSKKYDVVIMAAAVSDFRPKIKAEGKIKSGRSITIELVPXNPKIIDRIKEIQPNVFLVGFKAETSKEKLIEEGKRQIERAKADLVVGNTLEAFGSEENQVVLIGRDFTKELPKMKKRELAERIWDEIEKXLS
chain 2: MLLPDWKIRKEILIEPFSEESLQPAGYDLRVGREAFVKGKLIDVEKEGKVVIPPREYALILTLERIKLPDDVMGDMKIRSSLAREGVIGSFAWVDPGWDGNLTLMLYNASNEPVELRYGERFVQIAFIRLEGPARNPYRGNYQGSTRLAFSKRKKL
modifications: not fully specified; X: residue not identified in the source
notes: polymerase enhancing factor complex purified from Pyrococcus furiosus; predominant components P50 and P45
deamination of dCTP [1]: No deamination
dCTP converted ([1]; 1 hour, 72° C., 700 ng PEF): 16.6%
DNA polymerase activity (in words) [2]: no significant DNA polymerase activity
yield of PCR products generated with Taq DNA polymerase (Taq DNA polymerase): may not enhance the yield
